Laboratory results taken from US20110123544A1 (published 2011).

T1: recombinant human interleukin 12 (p40/p35 heterodimer) (human, UniProt P29460 23-328; P29459 23-219)
T1 chain 1: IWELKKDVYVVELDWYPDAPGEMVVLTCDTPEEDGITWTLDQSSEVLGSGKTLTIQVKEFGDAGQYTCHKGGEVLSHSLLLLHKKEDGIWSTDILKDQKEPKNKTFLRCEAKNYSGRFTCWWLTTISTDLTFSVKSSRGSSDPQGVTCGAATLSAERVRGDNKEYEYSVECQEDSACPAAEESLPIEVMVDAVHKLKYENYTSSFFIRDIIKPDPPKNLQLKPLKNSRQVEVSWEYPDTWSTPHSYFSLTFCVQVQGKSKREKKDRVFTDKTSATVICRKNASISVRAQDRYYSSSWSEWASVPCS
T1 chain 2: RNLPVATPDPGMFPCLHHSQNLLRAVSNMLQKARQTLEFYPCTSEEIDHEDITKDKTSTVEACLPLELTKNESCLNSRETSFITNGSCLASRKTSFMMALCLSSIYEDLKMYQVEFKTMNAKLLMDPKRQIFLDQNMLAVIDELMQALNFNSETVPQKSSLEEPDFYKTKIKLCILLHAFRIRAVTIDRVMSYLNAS


Target: T1, recombinant human interleukin 12 …
Assay: BIAcore

Row | Binder | koff [s⁻¹]
1 | HGSTDN [Y61 H98 T] | 0.000227
2 | HGDHDN [Y61 H97 D] | 0.00202
3 | HHSHDN [Y61 H96 H] | 0.000237
4 | HGSADN [Y61 H98 A] | 0.000673
5 | HGNHDN [Y61 H97 N] | 0.00221
6 | EGSHDN [Y61 H95 E] | 0.00231
7 | HGSLDN [Y61 H98 L] | 0.000598
8 | HMSHDN [Y61 H96 M] | 0.00204
9 | HLSHDN [Y61 H96 L] | 0.00261
10 | HVSHDN [Y61 H96 V] | 0.000382
11 | HGSHSN [Y61 H101 S] | 0.000449
12 | HGTHDN [Y61 H97 T] | 0.000588
13 | QGSHDN [Y61 H95 Q] | 0.000859
14 | KGSHDN [Y61 H95 K] | 0.00228
15 | HDSHDN [Y61 H96 D] | 0.00224
16 | HGIHDN [Y61 H97 I] | 0.00208
17 | HRSHDN [Y61 H96 R] | 0.000962
18 | HGHHDN [Y61 H97 H] | 0.00191
19 | HGPHDN [Y61 H97 P] | 0.003
20 | SGSHDN [Y61 H95 S] | 0.00193

Row | Binder | koff [s⁻¹]
21 | HGSHRN [Y61 H101 R] | 0.0011
22 | HGSVDN [Y61 H98 V] | 0.000293
23 | HGFHDN [Y61 H97 F] | 0.0018
24 | HGSHHN [Y61 H101 H] | 0.00327
25 | HWSHDN [Y61 H96 W] | 0.00197
26 | HGSHYN [Y61 H101 Y] | 0.00465
27 | LGSHDN [Y61 H95 L] | 0.00147
28 | HPSHDN [Y61 H96 P] | 0.00129
29 | HISHDN [Y61 H96 I] | 0.00208
30 | AGSHDN [Y61 H95 A] | 0.0015
31 | FGSHDN [Y61 H95 F] | 0.00514
32 | TGSHDN [Y61 H95 T] | 0.00202
33 | PGSHDN [Y61 H95 P] | 0.00471
34 | HGYHDN [Y61 H97 Y] | 0.00273
35 | HTSHDN [Y61 H96 T] | 0.00186
36 | HGGHDN [Y61 H97 G] | 0.00229
37 | HGSIDN [Y61 H98 I] | 0.000343
38 | HCSHDN [Y61 H96 C] | 0.000242
39 | HGAHDN [Y61 H97 A] | 0.00143
40 | HGSRDN [Y61 H98 R] | 0.00034

Target: T1, recombinant human interleukin 12 …
Assay: BIAcore
Remark: another data set of the same source

Row | Binder | koff [s⁻¹]
41 | FTFSSYIMH [Y61 H33 I] | 0.0025
42 | FTFSTYGMH [Y61 H31 T] | 0.000716
43 | FTFSQYGMH [Y61 H31 Q] | 0.000152
44 | FTFSSYMMH [Y61 H33 M] | 0.000215
45 | FTFNSYGMH [Y61 H30 N] | 0.000301
46 | FTFSAYGMH [Y61 H31 A] | 0.000205
47 | FTFSSEGMH [Y61 H32 E] | 0.00229
48 | FTFESYGMH [Y61 H30 E] | 0.000228
49 | FTFSSYVMH [Y61 H33 V] | 0.00191
50 | FTFSSVGMH [Y61 H32 V] | 0.00134
51 | FTFSSYYMH [Y61 H33 Y] | 0.0025
52 | FTFSHYGMH [Y61 H31 H] | 0.000309
53 | FTFSSYEMH [Y61 H33 E] | 0.00189
54 | FTFSRYGMH [Y61 H31 R] | 0.000664
55 | FTFSSSGMH [Y61 H32 S] | 0.00158
56 | FTFSSYCMH [Y61 H33 C] | 0.00286
57 | FTFSSAGMH [Y61 H32 A] | 0.00166
58 | FTFSCYGMH [Y61 H31 C] | 0.00012
59 | FTFSEYGMH [Y61 H31 E] | 0.000219
